For the data set the following is noted: Bacillus caldolyticus, pH 7, Thermal, Na cacodylate/HCl 0.1 M, reversible: Yes, whole UniProt chain shown.

B1: Cold shock protein CspB wild type, P41016 (protein)
chain: MQRGKVKWFNNEKGYGFIEVEGGSDVFVHFTAIQGEGFKTLEEGQEVSFEIVQGNRGPQAANVVKL
For B1, under “CD”, the melting temperature (Tm) came out at 76.9 °C and the “unfolding enthalpy (van 't Hoff)” value came to 58.6 kcal/mol. Further, where the note is “DSC”, the midpoint of thermal melting (Tm) stood at 76.9 °C and the “unfolding enthalpy (calorimetric)” value is 61.4 kcal/mol.

(Values after FireProtDB (doi:10.1093/protein/gzl019).)
